# From patent US8129349B2, “Treatment of disease by inducing cell apoptosis” (The Regents of the University of California, priority 2000, dated 2012)
# Substitutions are numbered along the chain they refer to.
# B1: rC/EBPβ-Ala^105: modified rat C/EBPβ with mutation of Ser^105 to Ala (SEQ ID NO:14), nonphosphorylatable mutant (protein, listed as Rattus norvegicus)
# chain: MHRLLAWDAACLPPPPAAFRPMEVANFYYEPDCLAYGAKAARAAPRAPAAEPAIGEHERAIDFSPYLEPLAPAAADFAAPAPAHHDFLSDLFADDYGAKPSKKPADYGYVSLGRAGAKAAPPACFPPPPPAALKAEPGFEPADCKRADDAPAMAAGFPFALRAYLGYQATPSGSSGSLSTSSSSSPPGTPSPADAKAAPAACFAGPPAAPAKAKAKKAVDKLSDEYKMRRERNNIAVRKSRDKAKMRNLETQHKVLELTAENERLQKKVEQLSRELSTLRNLFKQLPEPLLASAGHC
# B2: rC/EBPβ-Asp^105: modified rat C/EBPβ with mutation of Ser^105 to aspartic acid (SEQ ID NO:15), phosphorylation mimic (protein, listed as Rattus norvegicus)
# chain: B1 chain with A105D
# Tested on: hepatic stellate cells
# Experiment: Apoptosis of activated stellate cells transfected with C/EBPβ constructs, annexin-V-PE binding
# Type: cell-based, mouse
# Conditions: for Effect of expressed construct on apoptosis / survival of stellate cells: transfected cells on collagen type I matrix
# Text: FIG. 1 provides data showing that phosphorylation of C/EBPβ on Thr^217 is required for hepatic stellate cell survival. Panel A provides phosphopeptide maps of in vivo labeled endogenous C/EBPβ in day-4 quiescent and activated primary mouse stellate cells cultured from the time of isolation on EHS or collagen type I matrix, respectively. The arrow indicates the peptide containing Phospho-Thr^217 in activated cells. […] Panel B provides phosphopeptide maps of in vitro labeled C/EPBβ. Active p90RSK phosphorylated C/EPBβ, but not C/EBPβ-Ala^217 on Thr^217 in vitro (arrowheads). Panel C provides results for cells cultured on collagen type I transfected with MSV-C/EBPβ antisense (AS), MSV-C/EBPβ sense (S), or MSV-C/EBPβ-Ala^217 together with CMV-GFP (green fluorescent protein) and p90RSK (1 μg each), as indicated in the Figure. Four hours after transfection, annexin-V-PE binding to plasma membranes was determined. The values presented are the percentage of transfected cells (green) that were annexin-V-PE (+) (red) (P<0.05 for C/EBPβ AS, and C/EBPβ-Ala^217). Panel D provides results for cells transfected as in […] with vectors expressing dominant negative mutants for MEKK1, IκBα, or p90RSK, or treated with the proteasome inhibitor lactacystin (10 μM) (closed bars), and co-transfected with MSV-C/EBPβ-Glu^217 (1 μg each) (open bars) as indicated. Annexin-V-PE binding was determined as described for Panel A (P<0.05 for C/EBPβ-Glu^217). Panel E provides results for cells transfected as described for Panel C, with a dominant-negative p90RSK, treated with FAS (100 nM for 6 hours) or cultured in a serum-free medium for 6 hours (closed bars), and co-transfected with MSV-C/EBPβ-Glu^217 (1 μg each) (open bars), as indicated. Cell death was determined by nuclear staining with Hoechst 33342 (P<0.05 for C/EBPβ-Glu^217 in RSK mut and FAS-treated cells).
# FIG. 4 provides results showing that C/EBPβ PThr^217 associates with procaspases 1 and 8, and inhibits their activation. Panel A provides schematic representations of C/EBPβ peptides. The activation (dotted bars), DNA binding (solid bars) and dimerization (hatched bars) domains are shown. […] Panel C provides results showing that C/EBPβ and procaspase 8 were detected in activated stellate cells isolated from C/EBPβ^+/+ mice by confocal microscopy using specific antibodies (Santa Cruz Biotechnology). Control C/EBPβ^−/− stellate cells were negative for C/EBPβ, positive for procaspase 8, and apoptotic. Panel D provides immunoblot results for MSV vectors expressing C/EBPβ-HA (hemagglutinin protein) peptides (0.3 μg) transfected into activated stellate cells. The expressed peptides were immunoprecipitated with anti-HA antibodies. C/EBPβ-PThr^217 was detected using a specific antibody, only in cells expressing wild-type C/EBPβ. […] RSK was associated with all C/EBPβ peptides. Neither C/EBPβ nor procaspases 1 and 8 were detected in C/EBPβ immunoprecipitates from cells expressing C/EBPβ AS. Reciprocal immunoprecipitations of procaspases and RSK confirmed these associations.
# Adult male Sprague-Dawley rats and adult male C/EBPβ^+/+ and C/EBPβ^−/− (Screpanti et al., supra; and Buck et al., (1999), supra), C/EBPβ-Ala^217 and C/EBPβ-Asp^105 transgenic mice were used for the isolation of primary hepatic stellate cells (Houglum et al., supra). Primary hepatic stellate cells were isolated by collagenase/pronase perfusion and purified by a single step density Nycodenz gradient (Accurate Chemical & Scientific) as known in the art (See, Lee et al., (1995), supra). Cells were plated on type I collagen matrix (Becton Dickinson) or EHS matrix (Matrigel, Collaborative Biomedical Products). Cells were cultured with 10% fetal calf serum/10% fetal bovine serum and transfected with lipofectamine (GIBCO) for DNA vectors or with the Chariot reagent (Active Motif) for peptides (10 μM) as known in the art (See, Houglum et al., supra; and Morris et al., J. Biol. Chem., 274:24942-24946 (1999)). […]
Molecule,Effect of expressed construct on apoptosis / survival of stellate cells,"Rescue from induced apoptosis by expressed construct (apoptosis induced by dominant negative MEKK1, IκBα or RSK mutants or by lactacystin)"
"C/EBPβ 216-253-Ala^217: C/EBPβ fragment 216-253 with Ala^217, lacking the activation and dimerization domains (KAVDKLSDEYKMRRERNNIAVRKSRDKAKMRNLETQHK; left off: small tags and cut ends)",induced apoptosis,
B1,induced apoptosis,
B2,,rescued
